Laboratory results: paper PMC3713010, “Sox2 Transcriptionally Regulates Pqbp1, an Intellectual Disability-Microcephaly Causative Gene, in Neural Stem Progenitor Cells”

T1: Brn2 DNA-binding domain (BD-Brn2) (Mus musculus (B6), UniProt P31360 336-435)
T1 sequence: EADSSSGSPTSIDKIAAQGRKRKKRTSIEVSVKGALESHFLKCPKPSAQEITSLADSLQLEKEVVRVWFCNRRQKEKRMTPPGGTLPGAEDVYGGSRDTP

T2: Oct6 DNA-binding domain (BD-Oct6) (Mus musculus (B6), UniProt P21952 317-416)
T2 sequence: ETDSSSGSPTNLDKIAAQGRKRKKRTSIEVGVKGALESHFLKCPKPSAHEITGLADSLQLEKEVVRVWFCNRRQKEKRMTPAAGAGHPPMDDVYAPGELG


Experiments:
Assay in all cases: EMSA; 10% glycerol, 20 mM HEPES pH 7.8, 45 mM KCl, 10 mM NaCl, 1 mM EDTA, 1 mM DTT, 0.2 ug/uL BSA, 0.1% NP-40, 50 ng poly-dIdC; 20 ng each GST protein; room temperature 30 min (heterodimers 4 C); 6% PAGE 0.25x TBE
Settings in all cases: protein: recombinant; tags: GST (N-terminal, pGEX-6P-1); label: 32P-dCTP fill-in of the 5' (dG)5 overhangs of both strands (Methods; control probes are given with GGG)
[1] = target: Pax6 DNA-binding domain (BD-Pax6) (Mus musculus (B6), UniProt P63015 190-289)
Chain of Pax6 DNA-binding domain (BD-Pax6) (P63015 190-289): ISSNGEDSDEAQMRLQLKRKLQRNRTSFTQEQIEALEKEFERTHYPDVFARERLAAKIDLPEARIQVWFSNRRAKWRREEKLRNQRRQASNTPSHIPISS
Method in brief: (§1)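 Transcription factor DNA-binding domains carrying a GST tag were expressed in E. coli BL21, purified on glutathione-sepharose and tested against annealed candidate cis-element oligonucleotides labelled with 32P-dCTP. Each reaction held 20 ng protein, 40,000–50,000 cpm probe and 50 ng poly-dIdC in HEPES/KCl glycerol buffer with BSA and detergent, incubated 30 min at room temperature, then run on 6% polyacrylamide in 0.25×TBE at 4°C. DNA binding was scored as the radioactivity of the band in the expected shift region, read on a phosphor imager.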

[2] = target: T1, Brn2 DNA-binding domain (BD-Brn2)
Method in brief: as §1

[3] = target: T2, Oct6 DNA-binding domain (BD-Oct6)
Method in brief: as §1

Binder | binding result [1] | binding result [2] | binding result [3]
109 (dsDNA) DNA 1: GGGGGCTTTTTTTTTTGTATGTGATTTGAGGCAGAGTCCCCC DNA 2: GGGGGACTCTGCCTCAAATCACATACAAAAAAAAAAGCCCCC | no binding | no binding | no binding
101 (dsDNA) DNA 1: GGGGGTGCCTCCTTTTGTGAGCTATTTATAATGCTAACCCCC DNA 2: GGGGGTTAGCATTATAAATAGCTCACAAAAGGAGGCACCCCC | no binding | binds | binds
2 (dsDNA) DNA 1: GGGGGGCCATAGAATTGTACTTCTGTCACCAGTTTTATTTTTTTATTTCCCCC DNA 2: GGGGGAAATAAAAAAATAAAACTGGTGACAGAAGTACAATTCTATGGCCCCCC | no binding | no binding | no binding
113 (dsDNA) DNA 1: GGGGGACTAAGTCATTGTTTATTTCCGTGCTGTTCCCCC DNA 2: GGGGGAACAGCACGGAAATAAACAATGACTTAGTCCCCC | no binding | no binding | no binding
116 (dsDNA) DNA 1: GGGGGAAGGCCAGACTAATCTACAAAGTGAGTTCCCCCC DNA 2: GGGGGGAACTCACTTTGTAGATTAGTCTGGCCTTCCCCC | no binding | no binding | no binding
10 (dsDNA) DNA 1: GGGGGACACACACACAAAGATTTATTTATTCATTTAATCCCCC DNA 2: GGGGGATTAAATGAATAAATAAATCTTTGTGTGTGTGTCCCCC | no binding | binds | no binding
106 (dsDNA) DNA 1: GGGGGGCTTCCCTAGAATTGGAGATACAAAGGGCTCTGCCCCC DNA 2: GGGGGCAGAGCCCTTTGTATCTCCAATTCTAGGGAAGCCCCCC | no binding | no binding | no binding
117 (dsDNA) DNA 1: GGGGGGAAAAACAAAGATTTAGTATAAACCCCC DNA 2: GGGGGTTTATACTAAATCTTTGTTTTTCCCCCC | no binding | no binding | no binding
111 (dsDNA) DNA 1: GGGGGTTCAACCTTTTGTTGTATCATTTAAAAAACATTCCCCC DNA 2: GGGGGAATGTTTTTTAAATGATACAACAAAAGGTTGAACCCCC | no binding | binds | binds
11 (dsDNA) DNA 1: GGGGGGTGGGGTACAAAAATGGCCCTTTGTGATCAACTCCCCC DNA 2: GGGGGAGTTGATCACAAAGGGCCATTTTTGTACCCCACCCCCC | no binding | no binding | no binding
110 (dsDNA) DNA 1: GGGGGTTTATTTATTTGTTTTATTTCTATTTTTCTTGGTGACCCCC DNA 2: GGGGGTCACCAAGAAAAATAGAAATAAAACAAATAAATAAACCCCC | no binding | no binding | binds
102b (dsDNA) DNA 1: GGGGGAAAACAAAACAAAACTGGATTTGGCGATTGTATCCCCC DNA 2: GGGGGATACAATCGCCAAATCCAGTTTTGTTTTGTTTTCCCCC | no binding | no binding | no binding
102a (dsDNA) DNA 1: GGGGGGGATCCCCACAATACAAAAAAAACAAAAACAAAACCCCCC DNA 2: GGGGGGTTTTGTTTTTGTTTTTTTTGTATTGTGGGGATCCCCCCC | no binding | no binding | no binding
115 (dsDNA) DNA 1: GGGGGCTGGCCAGACAATGACGATATTTTTTTCCTTCACCCCCC DNA 2: GGGGGGTGAAGGAAAAAAATATCGTCATTGTCTGGCCAGCCCCC | no binding | no binding | no binding
104 (dsDNA) DNA 1: GGGGGCACAATTTTTATAATATATAATTGTTTCATCAACCCCC DNA 2: GGGGGTTGATGAAACAATTATATATTATAAAAATTGTGCCCCC | binds | binds | binds
100 (dsDNA) DNA 1: GGGGGCAACCAAAAAAAATGTATTTTACAAAAATCACAACCCCC DNA 2: GGGGGTTGTGATTTTTGTAAAATACATTTTTTTTGGTTGCCCCC | binds | no binding | binds
112 (dsDNA) DNA 1: GGGGGTGTGTTCATTTGTTTTTATTTTAGAAGGAGTCCCCC DNA 2: GGGGGACTCCTTCTAAAATAAAAACAAATGAACACACCCCC | no binding | binds | binds
108 (dsDNA) DNA 1: GGGGGCATCTTATCGTTAATATATACGTTTGTTACATATACCCCC DNA 2: GGGGGTATATGTAACAAACGTATATATTAACGATAAGATGCCCCC | binds | binds | binds
105 (dsDNA) DNA 1: GGGGGATTTTTTAAAAAATTAGACTACCACAAATCAACTGTCCCCC DNA 2: GGGGGACAGTTGATTTGTGGTAGTCTAATTTTTTAAAAAATCCCCC | binds | binds | binds
1 (dsDNA) DNA 1: GGGGGAAAATAACCAAAATAAAAAGTGTACAATTCAGTGGCCCCCC DNA 2: GGGGGGCCACTGAATTGTACACTTTTTATTTTGGTTATTTTCCCCC | no binding | no binding | no binding
114 (dsDNA) DNA 1: GGGGGTGATTTTTGCAAAATTTTGTTTTGTTTCTTGAGCCCCC DNA 2: GGGGGCTCAAGAAACAAAACAAAATTTTGCAAAAATCACCCCC | no binding | no binding | no binding
102c (dsDNA) DNA 1: GGGGGATTTGGCGATTGTATTATAATTGTCTATCAGTCCCCC DNA 2: GGGGGACTGATAGACAATTATAATACAATCGCCAAATCCCCC | binds | binds | binds
107 (dsDNA) DNA 1: GGGGGACTAGTTTTCTATTACTACAAATCTCAACTCCCCC DNA 2: GGGGGAGTTGAGATTTGTAGTAATAGAAAACTAGTCCCCC | no binding | no binding | no binding
9 (dsDNA) DNA 1: GGGGGTCCTGCCACTTGGGTTGCAGTGAGGACAATGAAATGAGCCCCC DNA 2: GGGGGCTCATTTCATTGTCCTCACTGCAACCCAAGTGGCAGGACCCCC | no binding | no binding | no binding
118 (dsDNA) DNA 1: GGGGGGACAAGGGTCAATTTGCTAGACAAAGATCTTCACCCCC DNA 2: GGGGGTGAAGATCTTTGTCTAGCAAATTGACCCTTGTCCCCCC | no binding | no binding | no binding
